Results as given in patent publication US20080230399A1, “Fructosylamine Oxidase” (priority 2003, published 2008).

Test: Determination of enzymatic activity (POD/Phenol/4A.A. method)
Format: biochemical
Conditions: substrate 10 mM, PPb pH 7.0 50 mM, absorbance at 505 nm; recombinant FAO produced by Escherichia coli compared with enzyme produced by wild-type Pichia sp. N1-1
Procedure: Reactivity of the purified enzyme prepared in Example 5 to fructosyl valine, N′-fructosyl lysine, fructosyl glycine, fructosyl alanine, fructosyl leucine, fructosyl phenylalanine, glucose and sarcosine was examined. The measurement was conducted using a solution containing a substrate (10 mM), PPb (pH 7.0, 50 mM), phenol (1.5 mM), 4-aminoantipyrine (1.5 mM) and peroxidase (2 U/ml), and changes in the absorbance at 505 nm were measured according to the POD/Phenol/4A.A. method. […] N1-1 strain of wild type.

B1: recombinant FAO: Fructosylamine oxidase derived from Pichia sp. N1-1 (SEQ ID NO: 1), recombinantly produced in Escherichia coli DH5α/pTN1 and purified (protein, listed as Pichia sp.)
chain: MESIIIVGAGTFGLSTALQLARDGYKNIKCFDKFPVPSEIAAGNDSNKIFHYDYVAPLAKPNSKERLSLEALHLWKTDPVYKPYYHPVGFILAASSDAPLLHDKEYYEELQKNGLRNYRYISTPEEFREYLPILKGPLPNWRGYVLDGDNGWLHARDSLKSAYEECKRLGVEFVFGDDGEIVELLNENGKLTGIRARSGAIFSAQKYVLSSGANAVTLLNFQRQLEGKCFTLAHFKVTDEEAKAFKSLPVLFNAEKGFFFEADENNEIKICNEYPGFTHTNESGESIPLYRMEIPLESALEIRQYLKETMPQFADRPFTKTRICWCTDSPDMQLILCTHPEYTNLIVASGDSGNSFKIMPIIGKYVSKVVTKGDKGLDPEDKECWKWRPETWDKRGQVRWGGRYRVADLNEIEEWVSVENPTPHKLE
  activity and substrate specificity of the enzyme: higher activity
